B1: BCL2L13 (parent)
chain: QSLDQEILLKVKTEIEEELKSLDK

Variants of: B1
Assay: protein stability index of a GFP-peptide fusion (GPS, HEK-293T) (PSI 1-6); higher = more stable
Details: c terminus: a fixed tail appended
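Also: lentivirally expressed fusions sorted by FACS into six bins by GFP to DsRed ratio, PSI derived from sequencing read proportions per bin multiplied by bin number.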

Compared with QSLDQEILLKGKTEIEEELKSLDK [V11G], QSLDQEILLKIKTEIEEELKSLDK [V11I] is lower in protein stability index: 5.36 for the first, 4.19 for the second.

Compared with QSLDQEILLKAKTEIEEELKSLDK [V11A], QSLDQEILLKMKTEIEEELKSLDK [V11M] is lower in protein stability index: 5.53 for the first, 4.95 for the second.

Compared with QSLDQEILLKFKTEIEEELKSLDK [V11F], QSLDQEILLKWKTEIEEELKSLDK [V11W] is higher in protein stability index: 4.83 for the first, 5.5 for the second.

Going from QSLDQEILLKHKTEIEEELKSLDK [V11H] to QSLDQEILLKEKTEIEEELKSLDK [V11E], the protein stability index rises from 4.56 to 5.63.

Going from QSLDQEILLKTKTEIEEELKSLDK [V11T] to QSLDDEILLKVKTEIEEELKSLDK [Q5D], the protein stability index falls from 5.51 to 5.28.

Compared with QSLDLEILLKVKTEIEEELKSLDK [Q5L], QSLDHEILLKVKTEIEEELKSLDK [Q5H] is higher in protein stability index: 2.99 for the first, 3.64 for the second.

First: QSLDKEILLKVKTEIEEELKSLDK [Q5K]
Second: QSLDFEILLKVKTEIEEELKSLDK [Q5F]
The protein stability index of the first is higher: 4.7 for the first, 2.83 for the second.

Going from QSLDIEILLKVKTEIEEELKSLDK [Q5I] to QSLDNEILLKVKTEIEEELKSLDK [Q5N], the protein stability index rises from 2.95 to 4.61.

First: QSLDCEILLKVKTEIEEELKSLDK [Q5C]
Second: QSLDVEILLKVKTEIEEELKSLDK [Q5V]
The protein stability index of the first is higher: 4.67 for the first, 3.62 for the second.

Going from QSLDYEILLKVKTEIEEELKSLDK [Q5Y] to QSLDPEILLKVKTEIEEELKSLDK [Q5P], the protein stability index rises from 3.38 to 4.4.

Going from QSLDEEILLKVKTEIEEELKSLDK [Q5E] to QSLDREILLKVKTEIEEELKSLDK [Q5R], the protein stability index falls from 4.8 to 4.14.

First: QSLDMEILLKVKTEIEEELKSLDK [Q5M]
Second: QSLDGEILLKVKTEIEEELKSLDK [Q5G]
The protein stability index of the first is lower: 4.05 for the first, 4.95 for the second.

Compared with QSLDSEILLKVKTEIEEELKSLDK [Q5S], QSLDWEILLKVKTEIEEELKSLDK [Q5W] is lower in protein stability index: 4.51 for the first, 3.67 for the second.

Going from QSLDQIILLKVKTEIEEELKSLDK [E6I] to QSLDQSILLKVKTEIEEELKSLDK [E6S], the protein stability index rises from 3.27 to 4.79.

First: QSLDQTILLKVKTEIEEELKSLDK [E6T]
Second: QSLDQYILLKVKTEIEEELKSLDK [E6Y]
The protein stability index of the first is higher: 4.62 for the first, 3.47 for the second.

Going from QSLDQWILLKVKTEIEEELKSLDK [E6W] to QSLDQMILLKVKTEIEEELKSLDK [E6M], the protein stability index rises from 2.76 to 3.71.

Compared with QSLDQGILLKVKTEIEEELKSLDK [E6G], QSLDQHILLKVKTEIEEELKSLDK [E6H] is lower in protein stability index: 4.78 for the first, 4.15 for the second.

First: QSLDQPILLKVKTEIEEELKSLDK [E6P]
Second: QSLDQLILLKVKTEIEEELKSLDK [E6L]
The protein stability index of the first is higher: 5.35 for the first, 3.58 for the second.

Going from QSLDQQILLKVKTEIEEELKSLDK [E6Q] to QSLDQNILLKVKTEIEEELKSLDK [E6N], the protein stability index rises from 4.56 to 5.24.

First: QSLDQAILLKVKTEIEEELKSLDK [E6A]
Second: QSLDQFILLKVKTEIEEELKSLDK [E6F]
The protein stability index of the first is higher: 3.94 for the first, 3.51 for the second.

Going from QSLDQDILLKVKTEIEEELKSLDK [E6D] to QSLDQRILLKVKTEIEEELKSLDK [E6R], the protein stability index falls from 4.83 to 3.67.

First: QSLDQVILLKVKTEIEEELKSLDK [E6V]
Second: QSLDQEILLKVKTLIEEELKSLDK [E14L]
The protein stability index of the first is higher: 3.92 for the first, 2.82 for the second.

Going from QSLDQEILLKVKTIIEEELKSLDK [E14I] to QSLDQEILLKVKTRIEEELKSLDK [E14R], the protein stability index rises from 2.92 to 3.85.

Going from QSLDQEILLKVKTDIEEELKSLDK [E14D] to QSLDQEILLKVKTFIEEELKSLDK [E14F], the protein stability index falls from 4.7 to 3.06.

Compared with QSLDQEILLKVKTCIEEELKSLDK [E14C], QSLDQEILLKVKTQIEEELKSLDK [E14Q] is higher in protein stability index: 4.03 for the first, 4.84 for the second.

Going from QSLDQEILLKVKTHIEEELKSLDK [E14H] to QSLDQEILLKVKTMIEEELKSLDK [E14M], the protein stability index falls from 4.26 to 3.7.

Going from QSLDQEILLKVKTNIEEELKSLDK [E14N] to QSLDQEILLKVKTAIEEELKSLDK [E14A], the protein stability index falls from 4.58 to 3.4.

First: QSLDQEILLKVKTKIEEELKSLDK [E14K]
Second: QSLDQEILLKVKTPIEEELKSLDK [E14P]
The protein stability index of the first is lower: 4.15 for the first, 4.31 for the second.

Going from QSLDQEILLKVKTGIEEELKSLDK [E14G] to QSLDQEILLMVKTEIEEELKSLDK [K10M], the protein stability index falls from 5.05 to 3.09.

Going from QSLDQEILLDVKTEIEEELKSLDK [K10D] to QSLDQEILLWVKTEIEEELKSLDK [K10W], the protein stability index falls from 5.67 to 3.15.

Compared with QSLDQEILLSVKTEIEEELKSLDK [K10S], QSLDQEILLAVKTEIEEELKSLDK [K10A] is lower in protein stability index: 5.01 for the first, 4.98 for the second.

Going from QSLDQEILLPVKTEIEEELKSLDK [K10P] to QSLDQEILLLVKTEIEEELKSLDK [K10L], the protein stability index falls from 5.4 to 3.19.

Going from QSLDQEILLHVKTEIEEELKSLDK [K10H] to QSLDQEILLEVKTEIEEELKSLDK [K10E], the protein stability index rises from 4.66 to 5.2.

First: QSLDQEILLVVKTEIEEELKSLDK [K10V]
Second: QSLDQEILLIVKTEIEEELKSLDK [K10I]
The protein stability index of the first is higher: 3.53 for the first, 3.21 for the second.

Compared with QSLDQEILLGVKTEIEEELKSLDK [K10G], QSLDQEILLYVKTEIEEELKSLDK [K10Y] is lower in protein stability index: 4.83 for the first, 3.85 for the second.

Going from QSLDQEILLNVKTEIEEELKSLDK [K10N] to QSLDQEILLRVKTEIEEELKSLDK [K10R], the protein stability index falls from 5.21 to 3.09.

Going from QSLDQEILLFVKTEIEEELKSLDK [K10F] to QSLDQEILLTVKTEIEEELKSLDK [K10T], the protein stability index rises from 3.67 to 4.84.

Compared with QSLDQEILLQVKTEIEEELKSLDK [K10Q], QSLDQEILLCVKTEIEEELKSLDK [K10C] is lower in protein stability index: 5.35 for the first, 4.16 for the second.

Going from QSLDQEILLKVQTEIEEELKSLDK [K12Q] to QSLDQEILLKVTTEIEEELKSLDK [K12T], the protein stability index rises from 4.62 to 4.73.

Compared with QSLDQEILLKVLTEIEEELKSLDK [K12L], QSLDQEILLKVITEIEEELKSLDK [K12I] is higher in protein stability index: 2.13 for the first, 2.6 for the second.

First: QSLDQEILLKVETEIEEELKSLDK [K12E]
Second: QSLDQEILLKVRTEIEEELKSLDK [K12R]
The protein stability index of the first is higher: 5.6 for the first, 4.77 for the second.

Going from QSLDQEILLKVVTEIEEELKSLDK [K12V] to QSLDQEILLKVCTEIEEELKSLDK [K12C], the protein stability index rises from 4.1 to 4.43.

First: QSLDQEILLKVHTEIEEELKSLDK [K12H]
Second: QSLDQEILLKVFTEIEEELKSLDK [K12F]
The protein stability index of the first is higher: 4.71 for the first, 3.15 for the second.

Going from QSLDQEILLKVNTEIEEELKSLDK [K12N] to QSLDQEILLKVDTEIEEELKSLDK [K12D], the protein stability index falls from 5.97 to 4.08.

First: QSLDQEILLKVYTEIEEELKSLDK [K12Y]
Second: QSLDQEILLKVATEIEEELKSLDK [K12A]
The protein stability index of the first is lower: 4.27 for the first, 4.94 for the second.

First: QSLDQEILLKVSTEIEEELKSLDK [K12S]
Second: QSLDQEILLKVGTEIEEELKSLDK [K12G]
The protein stability index of the first is lower: 4.61 for the first, 5.65 for the second.

Going from QSLDQEILLKVPTEIEEELKSLDK [K12P] to QSLDQEILLKVMTEIEEELKSLDK [K12M], the protein stability index falls from 5.38 to 1.81.
